Results published in US20210300992A1 (Stanford University, published 2021).
Numbering of substitutions follows the chain as printed. In names and notes the source's numbering stands.

Assays:
[1] = target: T1, human leukemia inhibitory factor (LIF), soluble (human, UniProt P15018 23-202); assay: cell-based or functional assay
[2] = target: T1, human leukemia inhibitory factor (LIF), …; assay: KinExA, purified Fc fusion with soluble human LIF
[3] = target: T1, human leukemia inhibitory factor (LIF), …; assay: KinExA with soluble human LIF; inhibitor titrated
Protocol: (§1) Binding of the purified LIF inhibitors to soluble LIF was tested using KinExA. Shown in FIG. 10 are binding results for: (1) a homodimer having a WT LIFR CBMI-Ig-like-CBMII Fc fusion as each monomer; (2) a homodimer having LIFR […] Fc as each monomer;

[4] = target: T1, human leukemia inhibitory factor (LIF), …; assay: KinExA, purified Fc fusion with soluble human LIF; reference LIFR-WT-Fc
Protocol: as §1
and (3) a homodimer having LIFR-gp130 V-E fusion Fc as each monomer. KD values calculated from KinExA software and fitted curves are shown.

[5] = target: T2, wild-type human LIFR displayed on the surface of yeast (human, UniProt P42702 45-534, limits assumed); assay: yeast-displayed receptor, no LIF added, anti-Fc detection by flow cytometry
T2 construct: also called LIFR wild-type (WT); wild-type LIFR
T2 sequence: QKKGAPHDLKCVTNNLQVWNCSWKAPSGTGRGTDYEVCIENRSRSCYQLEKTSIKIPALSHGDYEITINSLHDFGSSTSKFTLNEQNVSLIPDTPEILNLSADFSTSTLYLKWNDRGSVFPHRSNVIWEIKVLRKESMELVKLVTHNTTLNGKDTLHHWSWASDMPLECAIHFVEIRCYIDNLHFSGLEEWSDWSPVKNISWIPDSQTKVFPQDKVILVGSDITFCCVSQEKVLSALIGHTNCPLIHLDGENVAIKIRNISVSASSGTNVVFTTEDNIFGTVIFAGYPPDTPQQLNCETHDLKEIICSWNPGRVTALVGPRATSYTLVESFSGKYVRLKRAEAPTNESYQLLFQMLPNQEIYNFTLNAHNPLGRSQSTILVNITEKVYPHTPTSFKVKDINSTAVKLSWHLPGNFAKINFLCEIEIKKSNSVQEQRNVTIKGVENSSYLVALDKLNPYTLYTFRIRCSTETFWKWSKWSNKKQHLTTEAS

[6] = target: T3, wild-type human gp130 CBM domain displayed on the surface of yeast (human, UniProt P40189 124-324); assay: as above
T3 construct: also called gp130 wild-type (WT); wild-type gp130
T3 chain: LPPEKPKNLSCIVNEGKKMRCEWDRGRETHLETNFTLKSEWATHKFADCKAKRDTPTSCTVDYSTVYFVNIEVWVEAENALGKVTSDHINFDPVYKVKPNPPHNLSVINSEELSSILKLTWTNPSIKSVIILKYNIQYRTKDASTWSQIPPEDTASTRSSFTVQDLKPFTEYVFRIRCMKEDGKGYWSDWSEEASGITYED

[7] = target: T1, human leukemia inhibitory factor (LIF), …; assay: KinExA with soluble human LIF; KD calculated by the KinExA software
Protocol: as §1

[8] = target: T1, human leukemia inhibitory factor (LIF), …; assay: yeast surface display titration with human LIF, flow cytometry
Protocol: (§2) Binding to human LIF was measured via fluorescent antibody detection using flow cytometry.

[9] = target: T1, human leukemia inhibitory factor (LIF), …; assay: yeast surface display titration with human LIF, flow cytometry; reference yeast-displayed LIFR WT
Protocol: as §2
Results for LIFR wild-type (WT) (circles), the “PDD” variant (L218P-N42D-N277D) (squares), and the […] variant (mutations in FIG. 4, panel A) (triangles) are shown.

[10] = target: T1, human leukemia inhibitory factor (LIF), …; assay: yeast surface display titration with human LIF, flow cytometry; reference yeast-displayed gp130 WT
Protocol: as §2
Results for gp130 wild-type (WT) (circles), the “8M” variant (E4K-K5R-N14D-K45E-F46L-K83R-Y95D-N100S) (squares), and the ELDME variant (mutations in FIG. 4, panel A) (triangles) are shown.

human LIF-His = target: T4, human LIF-His (human, UniProt P15018 23-202); assay: competition on yeast: displayed wild-type LIFR or gp130 saturated with LIF-His, inhibitor added in excess; anti-His signal normalized to LIF alone
T4 construct: also called soluble LIF-His; not shown: His6 tag
Protocol: FIG. 14 LIF inhibitors compete LIF away from wild-type receptors. Panel A: Schematic illustration of competitive binding assay. […] Human LIF-His is incubated at saturating concentrations. Inhibitors (LIFR-[…]-Fc depicted) are then co-incubated with LIF-bound yeast, in excess. LIF binding is detected via His6-tag on LIF. The less LIF that remains bound after inhibitor incubation, the better the inhibitor is able to compete LIF away from the WT receptor. Panel B: Results from competitive binding experiment. […] Fraction bound is the fluorescent emission detected from the LIF-His, normalized to No Inhibitor added. Competitive binding of LIFR-WT-Fc, gp130-ELDME-Fc (Eng.), LIFR-[…]-Fc (Eng.), LIFR-gp130 Fusion-Fc (Eng.), LIFR-gp130 Heterodimeric Fc (Eng.), Anti-LIF mAb L1, and Anti-LIF mAb G1 are shown.
Human LIF-His is introduced at saturating concentrations. Inhibitors (LIFR-[…]-Fc depicted) are then co-incubated with LIF-bound yeast, in excess. LIF binding is detected via His6-tag on LIF. The less LIF that remains bound after inhibitor incubation, the better the inhibitor is able to compete LIF away from the WT receptor.

B1: LIFR CBMI-Ig-like-CBMII (VPRVVAID) Fc fusion homodimer (Fc fusion)
chain: QKKGAPHDLKCVTNNLQVWNCSWKAPSGTGRGTDYEVCIENRSRSCYQLEKTSIKIPALSHGDYEITINSLHDFGSSTSKFTLNEQNVSLIPDTPEILNLSADFSTSTLYLKWNDRGSVFPHRSNVIWEIKVLRKESMELVKLVTHNTTLNGKDTLHHWSWASDMPLECAIHFVEIRCYIDNLHFSGLEEWSDWSPVKNISWIPDSQTKVFPQDKVVPVGSDITFCCVSQEKVLSALIGRTDCPLIHLDGENVAIKVRNVSASASSGTNVVFITEDDIFGTVIFAGYPPDTPQGSQLNCETHDLKEIICSWNPGRVTALVGPRATSYTLVESFSGKYVRLKRAEAPTNESYQLLFQMLPNQEIYNFTLNAHNPLGRSQSTILVNITEKVYPHTPTSFKVKDINSTAVKLSWHLPGNFAKINFLCEIEIKKSNSVQEQRNVTIKGVENSSYLVALDKLNPYTLYTFRIRCSTETFWKWSKWSNKKQHLTTEASGSGSGSDKTHTCPPCPAPELLGGPSVFLFPPKPKDTLMISRTPEVTCVVVDVSHEDPQVKFNWYVDGVQVHNAKTKPREQQYNSTYRVVSVLTVLHQNWLDGKEYKCKVSNKALPAPIEKTISKAKGQPREPQVYTLPPSREEMTKNQVSLTCLVKGFYPSDIAVEWESNGQPENNYKTTPPVLDSDGSFFLYSKLTVDKSRWQQGNVFSCSVMHEALHNHYTQKSLSLSPGK
IC50, inhibition of LIF derived luciferase activity in HeLa STAT3 luciferase reporter cells [1]: 0.035 nM | fold improvement in IC50 over LIFR WT Fc, inhibition of LIF derived luciferase activity in HeLa reporter cells [1]: 53 fold | Kd [2]: 0.023 nM | EC50 (read off the curve) [3]: ~0.05 nM | fold improvement in affinity over LIFR-WT-Fc [4]: 43 fold | binding result [5]: no binding | binding result [6]: no binding | Kd [7]: 0.0231 nM

B2: LIFR VPRVVAID variant displayed on the surface of yeast (receptor)
chain: T2 sequence with I217V, L218P, H240R, I257V, I260V, V262A, T273I, N277D
notes: also called I217V-L218P-H240R-I257V-I206V-V262A-T2711-N277D
Kd [8]: 0.03 nM | fold higher affinity compared to wild-type (WT) [9]: 32 fold

B3: gp130 ELDME variant displayed on the surface of yeast (receptor)
chain: T3 chain with K45E, F46L, Y95D, I130M, K184E
notes: also called K45E-F46L-Y95D-I130M-K184E
Kd [8]: 5 nM | fold higher affinity compared to wild-type (WT) [10]: 12 fold

B4: gp130 CBM domain (ELDME) Fc fusion homodimer (Fc fusion)
chain: LPPEKPKNLSCIVNEGKKMRCEWDRGRETHLETNFTLKSEWATHELADCKAKRDTPTSCTVDYSTVYFVNIEVWVEAENALGKVTSDHINFDPVDKVKPNPPHNLSVINSEELSSILKLTWTNPSIKSVMILKYNIQYRTKDASTWSQIPPEDTASTRSSFTVQDLKPFTEYVFRIRCMKEDGEGYWSDWSEEASGITYEDGSGSGSDKTHTCPPCPAPELLGGPSVFLFPPKPKDTLMISRTPEVTCVVVDVSHEDPQVKFNWYVDGVQVHNAKTKPREQQYNSTYRVVSVLTVLHQNWLDGKEYKCKVSNKALPAPIEKTISKAKGQPREPQVYTLPPSREEMTKNQVSLTCLVKGFYPSDIAVEWESNGQPENNYKTTPPVLDSDGSFFLYSKLTVDKSRWQQGNVFSCSVMHEALHNHYTQKSLSLSPGK
notes: also called gp130-ELDME-Fc; gp130 ELDME Fc
binding result [5]: no binding | binding result [6]: no binding | binding result (human LIF-His): binds
